Target: T1, P-selectin glycoprotein ligand-1 (UniProt Q14242)
T1 sequence: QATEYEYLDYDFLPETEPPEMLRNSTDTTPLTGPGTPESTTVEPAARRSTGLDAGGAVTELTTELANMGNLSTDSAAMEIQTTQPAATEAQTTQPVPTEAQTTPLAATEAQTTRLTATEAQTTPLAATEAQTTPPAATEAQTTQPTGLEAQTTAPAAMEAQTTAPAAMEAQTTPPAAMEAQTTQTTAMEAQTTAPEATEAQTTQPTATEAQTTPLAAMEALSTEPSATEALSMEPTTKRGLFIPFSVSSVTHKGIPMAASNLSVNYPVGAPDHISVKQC

## mocarhagin purified from the venom of the Mozambiquan spitting cobra, Naja mossambica mossambica
  proteolytic cleavage of PSGL-1: Mocarhagin cleaves a ten amino acid peptide from the mature N-terminus of PSGL-1 and abolishes the ability of PSGL-1 to bind P-selectin
